From patent US20030148973A1, “MAGE-A1 peptides for treating or preventing cancer” (priority 2001, published 2003)

Target: HLA-A0201 molecules on the surface of T2 cells
Assay: T2 cell HLA-A0201 stabilization; 20 µg peptide on 10^6 acid-stripped T2 cells, BB7.2 staining, flow cytometry
Conditions: remark: other sources report otherwise

- Fluorescence Index (FI): 1.73 FI
Binder: CLGLSYDGL [MAGE-A1 174]
